Measured values reported in patent US20070077617.
“Also recorded” adds a separate entry of the source.

How the values were obtained:
[1] = molecular target: human calcitonin precursor fusion protein PCT
[2] = molecular target: human adrenocorticotropic hormone(1-24) fusion protein PAC
Sequence of human adrenocorticotropic hormone(1-24) fusion protein PAC (chain, as listed by the source): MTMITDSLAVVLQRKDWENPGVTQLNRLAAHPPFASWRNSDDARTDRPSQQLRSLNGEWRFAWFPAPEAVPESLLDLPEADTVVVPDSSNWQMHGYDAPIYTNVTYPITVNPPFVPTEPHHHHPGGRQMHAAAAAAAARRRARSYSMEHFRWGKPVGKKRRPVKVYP

Sequence of human calcitonin precursor fusion protein PCT (chain, as listed by the source): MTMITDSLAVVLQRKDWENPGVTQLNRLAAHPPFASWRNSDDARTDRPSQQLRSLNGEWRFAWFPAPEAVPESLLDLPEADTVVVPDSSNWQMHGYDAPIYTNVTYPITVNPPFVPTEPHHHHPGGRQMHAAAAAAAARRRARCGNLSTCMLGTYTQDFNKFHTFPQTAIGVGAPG

B1: OmpT protease (wild-type, E. coli mature OmpT protease) (protein)
chain: STETLSFTPDNINADISLGTLSGKTKERVYLAEEGGRKVSQLDWKFNNAAIIKGAINWDLMPQISIGAAGWTTLGSRGGNMVDQDWMDSSNPGTWTDESRHPDTQLNYANEFDLNIKGWLLNEPNYRLGLMAGYQESRYSFTARGGSYIYSSEEGFRDDIGSFPNGERAIGYKQRFKMPYIGLTGSYRYEDFELGGTFKYSGWVESSDNDEHYDPGKRITYRSKVKDQNYYSVAVNAGYYVTPNAKVYVEGAWNRVTNKKGNTSLYDHNNNTSDYSKNGAGIENYNFITTAGLKYTF
Fusion protein PRG
  relative cleavage efficiency: less than 3%
Fusion protein PA3
  cleavage (HPLC, mass analysis): All of the PAn proteins underwent cleavage by OmpT protease at the same site as PA
  cleavage efficiency against PA: Increase in cleavage efficiency was seen for all of the PAn proteins except for PA2 and PA2′
Fusion protein PRK
  relative cleavage efficiency: 88%
Fusion protein PMT
  cleavage (SDS-PAGE, HPLC): cleavage of the fusion protein PMT by OmpT protease was confirmed
  release of human motilin (cleavage at Arg^143-Phe^144): only a very slight amount of peptide cleavage fragment of Arg^143-Phe^144, i.e. human motilin, was detected by mass analysis
Fusion protein PMT; scale: relative
  relative cleavage efficiency: RAR-motilin (Arg^140-Arg^141): 23
  relative cleavage efficiency: RRAR-motilin (Arg^139-Arg^140): 100
Fusion protein PRW
  relative cleavage efficiency: less than 3%
Fusion protein PA
  cleavage efficiency (reference): the cleavage efficiency of the fusion protein PA is 100%
Fusion protein PRY
  relative cleavage efficiency: < 3%
Fusion protein PRN
  relative cleavage efficiency: < 3%
Fusion protein PA3D23′
  cleavage (HPLC, mass analysis): the major cleavage site of PA5D23′, PA4D23′ and PA3D23′ is Arg^143-Ala^144
  cleavage at Arg^139-Arg^140 and Arg^140-Arg^141: no cleavage was detected at Arg^139-Arg^140 and Arg^140-Arg^141, similar to PA4D23′
  cleavage efficiency at Arg^143-Ala^144 against Arg^140-Arg^141 of PA: about the same as the cleavage efficiency at Arg^140-Arg^141 of PA, and lower than PA4D23′
Fusion protein PRL
  relative cleavage efficiency: less than 3%
Fusion protein PA8
  cleavage (HPLC, mass analysis): All of the PAn proteins underwent cleavage by OmpT protease at the same site as PA
  cleavage efficiency against PA: Increase in cleavage efficiency was seen for all of the PAn proteins except for PA2 and PA2′
Fusion protein PRI
  relative cleavage efficiency: < 3%
Fusion protein PRR
  relative cleavage efficiency: 100%
[1]
  cleavage (HPLC, mass analysis): The fusion protein PCT was cleaved at Arg^139-Arg^140 and Arg^140-Arg^141 by wild-type OmpT protease, releasing RRAR-CT and RAR-CT
Fusion protein PRP
  relative cleavage efficiency: less than 3%
Fusion protein PRM
  relative cleavage efficiency: < 3%
Fusion protein PRE
  relative cleavage efficiency: less than 3%
Fusion protein PA1A3′
  cleavage (HPLC, mass analysis): PA1A3′ and PA1′A3′ were both cleaved at Arg^143-Ala^144
  cleavage efficiency against PA: all of the cleavage efficiencies were lower than the cleavage efficiency at Arg^140-Arg^141 of PA
Fusion protein PA5
  cleavage (HPLC, mass analysis): All of the PAn proteins underwent cleavage by OmpT protease at the same site as PA
  cleavage efficiency against PA: Increase in cleavage efficiency was seen for all of the PAn proteins except for PA2 and PA2′
Fusion protein PRQ
  relative cleavage efficiency: less than 3%
Fusion protein PRC
  relative cleavage efficiency: 3.1%
Fusion protein PRD
  relative cleavage efficiency: less than 3%
Fusion protein PA2′
  cleavage (HPLC, mass analysis): All of the PAn proteins underwent cleavage by OmpT protease at the same site as PA, while PA2, PA2′ and PA3′ also underwent cleavage at other sites
  cleavage efficiency against PA: the cleavage efficiencies of PA2 and PA2′ were reduced to about ⅓
Fusion protein PA9
  cleavage (HPLC, mass analysis): All of the PAn proteins underwent cleavage by OmpT protease at the same site as PA
  cleavage efficiency against PA: Increase in cleavage efficiency was seen for all of the PAn proteins except for PA2 and PA2′
Fusion protein PA3′
  cleavage (HPLC, mass analysis): All of the PAn proteins underwent cleavage by OmpT protease at the same site as PA, while PA2, PA2′ and PA3′ also underwent cleavage at other sites
  cleavage efficiency against PA: Increase in cleavage efficiency was seen for all of the PAn proteins except for PA2 and PA2′
  cleavage efficiency at Arg^140-Arg^141 (PA = 100%): cleavage efficiencies: 220%, 73%
  cleavage efficiency at Arg^143-Ala^144 (PA = 100%): cleavage efficiencies: 220%, 73%
Fusion protein PA23′
  cleavage (HPLC, mass analysis): It was confirmed that PA23′, PA323′ and PA2′3′ are cleaved at Arg^143-Ala^144
  cleavage efficiency at Arg^143-Ala^144 against Arg^140-Arg^141 of PA: 2.9 times the cleavage efficiency at Arg^140-Arg^141 of PA
Fusion protein PA7
  cleavage (HPLC, mass analysis): All of the PAn proteins underwent cleavage by OmpT protease at the same site as PA
  cleavage efficiency against PA: Increase in cleavage efficiency was seen for all of the PAn proteins except for PA2 and PA2′
Fusion protein PA2
  cleavage (HPLC, mass analysis): All of the PAn proteins underwent cleavage by OmpT protease at the same site as PA, while PA2, PA2′ and PA3′ also underwent cleavage at other sites
  cleavage efficiency against PA: the cleavage efficiencies of PA2 and PA2′ were reduced to about ⅓
Fusion protein PA2′3′
  cleavage (HPLC, mass analysis): It was confirmed that PA23′, PA323′ and PA2′3′ are cleaved at Arg^143-Ala^144
  cleavage efficiency at Arg^143-Ala^144 against Arg^140-Arg^141 of PA: low at 63% of the cleavage efficiency at Arg^140-Arg^141 of PA
Fusion protein PA5D23′
  cleavage (HPLC, mass analysis): the major cleavage site of PA5D23′, PA4D23′ and PA3D23′ is Arg^143-Ala^144
  cleavage at Arg^140-Arg^141: cleavage was also observed at Arg^140-Arg^141
  cleavage efficiency at Arg^143-Ala^144 against Arg^140-Arg^141 of PA: 1.9 times the cleavage efficiency at Arg^140-Arg^141 of PA
Fusion protein PA4D23′
  cleavage (HPLC, mass analysis): the major cleavage site of PA5D23′, PA4D23′ and PA3D23′ is Arg^143-Ala^144
  cleavage at Arg^139-Arg^140 and Arg^140-Arg^141: no cleavage was detected at Arg^139-Arg^140 and Arg^140-Arg^141 as was detected with PA23′
  cleavage efficiency at Arg^143-Ala^144 against Arg^140-Arg^141 of PA: low compared to PA23′, but twice the cleavage efficiency at Arg^140-Arg^141 of PA
Fusion protein PA4
  cleavage (HPLC, mass analysis): All of the PAn proteins underwent cleavage by OmpT protease at the same site as PA
  cleavage efficiency against PA: PA4 had the highest cleavage efficiency of about 5 times that of PA
Fusion protein PRMT
  cleavage (SDS-PAGE): no cleavage of PRMT was detected
Fusion protein PA10
  cleavage (HPLC, mass analysis): All of the PAn proteins underwent cleavage by OmpT protease at the same site as PA
  cleavage efficiency against PA: Increase in cleavage efficiency was seen for all of the PAn proteins except for PA2 and PA2′
Fusion protein PRH
  relative cleavage efficiency: less than 3%
Fusion protein PA5′
  cleavage (HPLC, mass analysis): All of the PAn proteins underwent cleavage by OmpT protease at the same site as PA
  cleavage efficiency against PA: Increase in cleavage efficiency was seen for all of the PAn proteins except for PA2 and PA2′
Fusion protein PRV
  relative cleavage efficiency: 3.5%
Fusion protein PA4′
  cleavage (HPLC, mass analysis): All of the PAn proteins underwent cleavage by OmpT protease at the same site as PA
  cleavage efficiency against PA: Increase in cleavage efficiency was seen for all of the PAn proteins except for PA2 and PA2′
Fusion protein PRT
  relative cleavage efficiency: < 3%
Fusion protein PA6
  cleavage (HPLC, mass analysis): All of the PAn proteins underwent cleavage by OmpT protease at the same site as PA
  cleavage efficiency against PA: Increase in cleavage efficiency was seen for all of the PAn proteins except for PA2 and PA2′
Fusion protein PRA
  relative cleavage efficiency: 5.4%
[2]
  cleavage (HPLC, mass analysis): The fusion protein PAC was cleaved at Arg^143-Ser^144 by wild-type OmpT protease to release human adrenocorticotropic hormone(1-24)
Fusion protein PA323′
  cleavage (HPLC, mass analysis): It was confirmed that PA23′, PA323′ and PA2′3′ are cleaved at Arg^143-Ala^144
  cleavage at Arg^140-Arg^141 against Arg^143-Ala^144: at 59% the cleavage efficiency at Arg^143-Ala^144
  cleavage efficiency at Arg^143-Ala^144 against Arg^140-Arg^141 of PA: also 2.9 times the cleavage efficiency at Arg^140-Arg^141 of PA
Fusion protein PA1′A3′
  cleavage (HPLC, mass analysis): PA1A3′ and PA1′A3′ were both cleaved at Arg^143-Ala^144; also recorded: Cleavage was also confirmed at Arg^140-Ala^141 in PA1′A3′
  cleavage efficiency against PA: all of the cleavage efficiencies were lower than the cleavage efficiency at Arg^140-Arg^141 of PA
Fusion protein PRS
  relative cleavage efficiency: 3.9%
Fusion protein PRF
  relative cleavage efficiency: < 3%
